Source: publication PMC12046042 (2025)

Columns and labels:
Assay in all cases: SPR
[1] = target: FcγRIIa-131R
[2] = target: FcγRIIIa-158V
[3] = target: FcγRIIa-131H
[4] = target: FcγRIIIa-158F
[5] = target: FcγRIIb
[6] = target: T1, FcγRI (CD64) extracellular domain (UniProt P12314 16-292)
T1 chain: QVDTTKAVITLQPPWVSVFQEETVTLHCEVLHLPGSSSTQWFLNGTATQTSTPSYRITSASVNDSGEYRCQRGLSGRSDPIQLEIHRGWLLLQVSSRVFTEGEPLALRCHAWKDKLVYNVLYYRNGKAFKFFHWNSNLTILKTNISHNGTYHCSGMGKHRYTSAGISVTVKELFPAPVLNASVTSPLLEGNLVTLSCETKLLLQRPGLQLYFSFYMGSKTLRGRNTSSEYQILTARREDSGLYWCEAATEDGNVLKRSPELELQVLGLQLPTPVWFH

B1: LY3454738 IgG4 S228P (ucenprubart) (antibody)
chain 1: QVQLVQSGAEVKKPGASVKVSCKASGFSFSSGYYMAWVRQAPGQGLEWMGLIGVGSGSLWYAQKFQGRVTMTRDTSTSTVYMELSSLRSEDTAVYYCARHFALSDPFNLWGQGTLVTVSS
chain 2: EIVLTQSPDFQSVTPKEKVTITCQASESIDSYLLWYQQKPDQSPKLLIKQASTLASGVPSRFSGSGSGTDFTLTINSLEAEDAATYYCQNYYDISSNDFGGGTKVEIK
[1]
  Kd: 1800 nM
[2]
  Kd: 5000 nM
[3]
  Kd: 4400 nM
[4]
  Kd: > 10000 nM
[5]
  Kd: 1900 nM
[6]
  Kd: 0.474 nM
